In patent US20200010570A1:

Target: C1q (Fitzgerald, Cat. No. 32R-AC049) (UniProt P02745)
Assay: ForteBio, biotinylated antibody on SA chip, C1q from 200 nM

Chain of C1q (Fitzgerald, Cat. No. 32R-AC049) (P02745 23-245 limits assumed, chain 1 of 3): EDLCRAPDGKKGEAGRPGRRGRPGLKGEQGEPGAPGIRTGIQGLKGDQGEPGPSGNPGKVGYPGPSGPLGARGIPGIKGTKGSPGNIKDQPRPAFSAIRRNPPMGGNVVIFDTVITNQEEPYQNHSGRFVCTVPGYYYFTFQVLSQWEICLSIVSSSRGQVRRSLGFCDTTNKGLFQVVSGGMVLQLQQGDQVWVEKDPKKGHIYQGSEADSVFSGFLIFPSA
Chain of C1q (Fitzgerald, Cat. No. 32R-AC049) (P02746 28-253 limits assumed, chain 2 of 3, further chain): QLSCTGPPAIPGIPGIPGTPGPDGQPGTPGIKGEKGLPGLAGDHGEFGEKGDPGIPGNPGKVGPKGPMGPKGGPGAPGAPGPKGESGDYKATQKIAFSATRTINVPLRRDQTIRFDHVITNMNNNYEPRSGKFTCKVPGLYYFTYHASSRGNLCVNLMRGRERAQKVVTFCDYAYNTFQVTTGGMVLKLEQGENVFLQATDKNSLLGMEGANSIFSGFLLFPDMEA
Chain of C1q (Fitzgerald, Cat. No. 32R-AC049) (P02747 29-245 limits assumed, chain 3 of 3, further chain): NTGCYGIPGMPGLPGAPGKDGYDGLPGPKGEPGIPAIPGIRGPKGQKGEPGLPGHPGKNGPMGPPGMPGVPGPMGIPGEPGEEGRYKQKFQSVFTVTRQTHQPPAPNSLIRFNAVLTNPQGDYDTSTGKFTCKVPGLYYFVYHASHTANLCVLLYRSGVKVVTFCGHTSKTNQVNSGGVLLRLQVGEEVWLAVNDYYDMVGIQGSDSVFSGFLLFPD

“Tecentriq® (Atezolizumab, purchased from Roche) (antibody)” gave a Kd of 1.3 nM, a koff of 0.00176 s⁻¹ and a kon of 1.36e+06 M⁻¹ s⁻¹.
